According to publication PMC7346098 (Biochemistry, 2020):

Molecular target: T1, KaiC_(S431E,T432E) (Synechococcus elongatus (PCC 7942), UniProt Q79PF4 1-519, S431E | T432E)
T1 sequence (looked up): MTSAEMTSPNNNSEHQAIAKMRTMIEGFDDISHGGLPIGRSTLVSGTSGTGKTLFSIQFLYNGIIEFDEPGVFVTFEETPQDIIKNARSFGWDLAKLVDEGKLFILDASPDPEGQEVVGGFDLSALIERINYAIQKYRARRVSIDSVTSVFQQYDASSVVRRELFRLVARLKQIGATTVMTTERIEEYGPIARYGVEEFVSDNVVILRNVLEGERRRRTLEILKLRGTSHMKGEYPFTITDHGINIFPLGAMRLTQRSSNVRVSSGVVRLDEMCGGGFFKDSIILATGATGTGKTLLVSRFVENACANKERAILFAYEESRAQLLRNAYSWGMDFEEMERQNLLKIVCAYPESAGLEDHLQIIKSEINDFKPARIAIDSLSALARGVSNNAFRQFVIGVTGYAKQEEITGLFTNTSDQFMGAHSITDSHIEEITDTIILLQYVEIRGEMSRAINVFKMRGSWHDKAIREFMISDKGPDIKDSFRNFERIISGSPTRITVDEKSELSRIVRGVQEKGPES
Experiment: fluorescence polarisation

B1: WT-KaiB (natural protein, Synechococcus elongatus (PCC 7942), UniProt Q79PF5 1-102, looked up)
chain: MSPRKTYILKLYVAGNTPNSVRALKTLKNILEVEFQGVYALKVIDVLKNPQLAEEDKILATPTLAKVLPLPVRRIIGDLSDREKVLIGLDLLYGELQDSDDF
binding result: binds
